Data reported in patent US20240011017A1 (Genentech, published 2024).

Key:
FLRT2 (in supernatants) = target: T1, FLRT2 (in supernatants) (human, UniProt O43155 36-541); assay: cell-based immunofluorescence validation (FIG. 17): receptor in supernatants, KCP on cells
T1 sequence: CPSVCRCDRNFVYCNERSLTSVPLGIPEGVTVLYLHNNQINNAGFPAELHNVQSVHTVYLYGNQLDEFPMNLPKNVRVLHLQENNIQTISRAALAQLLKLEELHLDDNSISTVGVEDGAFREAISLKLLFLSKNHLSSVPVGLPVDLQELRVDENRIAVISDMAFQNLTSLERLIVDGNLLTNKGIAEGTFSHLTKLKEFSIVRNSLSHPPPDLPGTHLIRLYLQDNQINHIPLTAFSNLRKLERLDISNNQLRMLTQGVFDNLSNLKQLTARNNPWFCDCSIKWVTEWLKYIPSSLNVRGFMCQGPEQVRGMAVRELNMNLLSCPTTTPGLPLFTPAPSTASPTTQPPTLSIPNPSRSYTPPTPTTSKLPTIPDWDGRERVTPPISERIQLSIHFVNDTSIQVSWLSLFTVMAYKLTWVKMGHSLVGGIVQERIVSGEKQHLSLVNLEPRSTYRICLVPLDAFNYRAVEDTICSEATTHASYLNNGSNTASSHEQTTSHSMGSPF

FLRT1 (in supernatants) = target: T2, FLRT1 (in supernatants) (human, UniProt Q9NZU1 49-552); assay: as above
T2 sequence: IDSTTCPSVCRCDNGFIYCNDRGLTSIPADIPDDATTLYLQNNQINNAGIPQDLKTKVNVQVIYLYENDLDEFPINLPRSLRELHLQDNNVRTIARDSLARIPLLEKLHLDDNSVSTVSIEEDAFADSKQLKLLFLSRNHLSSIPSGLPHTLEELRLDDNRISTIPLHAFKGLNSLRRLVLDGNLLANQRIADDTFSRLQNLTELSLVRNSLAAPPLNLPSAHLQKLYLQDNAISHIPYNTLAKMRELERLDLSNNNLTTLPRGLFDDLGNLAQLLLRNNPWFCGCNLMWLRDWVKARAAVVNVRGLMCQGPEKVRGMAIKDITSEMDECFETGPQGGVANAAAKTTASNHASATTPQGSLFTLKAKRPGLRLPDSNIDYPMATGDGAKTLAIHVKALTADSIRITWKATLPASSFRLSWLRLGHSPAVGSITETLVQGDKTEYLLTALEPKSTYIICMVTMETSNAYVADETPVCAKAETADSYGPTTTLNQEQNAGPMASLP

B1: HHV8 protein KCP expressed on cells (gD-GPI construct or full-length protein) (other)
chain: QDNEKCSQKTLIGYRLKMSRDGDIAVGETVELRCRSGYTTYARNITATCLQGGTWSEPTATCNKKSCPNPGEIQNGKVIFHGGQDALKYGANISYVCNEGYFLVGREYVRYCMIGASGQMAWSSSPPFCEKEKCHRPKIENGDFKPDKDYYEYNDAVHFECNEGYTLVGPHSIACAVNNTWTSNMPTCELAGCKFPSVTHGYPIQGFSLTYKHKQSVTFACNDGFVLRGSPTITCNVTEWDPPLPKCVLEDIDDPNNSNPGRLHPTPNEKPNGNVFQRSNYTEPPTKPEDTHTAATCDTNCEQPPKILPTSEGFNETTTSNTITKQLEDEKTTSQPNTHITSALTSMKAKGNFTNKTNNSTDLHIASTPTSQDDATPSIPSVQTPNYNTNAPTRTLTSLHIEEGPSNSTTSEKATASTLSHNSHKNDTGGIYTTLNKTTQLPSTNKPTNSQAKSSTKPRVETHNKTTSNPAISLTDSADVPQRPREPTLPPIFRPPASKNRYL
notes: also called HHV8 KCP
B1: binds (FLRT2 (in supernatants)); binds (FLRT1 (in supernatants)).
